Reference: paper PMC6908968 (Cell, 2019)

Key:
[1] = target: EBOV GP ectodomain residues 1-636 (GPec) (Zaire ebolavirus, strain  …, UniProt Q05320)
[2] = target: T1, thermolysin-cleaved EBOV GP on Jurkat-GP cells (cleaved GP) (Zaire ebolavirus, Makona (GP1 core …, strain))
T1 chain 1: not shown
T1 chain 2: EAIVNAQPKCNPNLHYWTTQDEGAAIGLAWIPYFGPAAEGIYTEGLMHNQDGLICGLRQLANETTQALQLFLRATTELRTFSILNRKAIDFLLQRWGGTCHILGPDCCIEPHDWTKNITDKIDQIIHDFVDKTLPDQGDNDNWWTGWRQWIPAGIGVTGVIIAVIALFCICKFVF

B1: 5.6.c3053 (antibody, V domains shown)
VH: QVQLVESGGGLVQPGRSLRLSCAASGFTFTNYGMQWVRQGPGKGLEWVALIWYDGYSKYYVDSVKGRFTISRDNSKNTLYLEMNSLRAEDTAVYYCARGNGYSSGWLDNWGQGTLVTVSS
VL: DIQMTQSPSTLSASVGDRVTITCRASQSIDNWLAWYQQKPGKAPKVLIYKASSLESGVPSRFSGSASGTEFTLTISSLQPDDFATYYCQHYNSYSGTFGQGTKVEIK
- binding result [1]: binds
- binding result [2]: binds

B2: 5.6.c3067 (antibody, V domains shown)
VH: EVQLVESGGGLVQPGGSLRLSCAASGFTFSNYWMTWVRQAPGKGLEWVGNIKEDGSEKYYVDSVKGRFTISRDNAKNSLYLQLNNLRAEDTAVYYCAREPAGFVFEGGFDYWGQGTLVTVSS
VL: DIQMTQSPSSVSASVGDRVTILCRASQYITTWLAWYQQKPGRAPKLLISAASTLQSGVPSRFSGSGSGTDFTLTISSLQPEDFATYYCQQAHSLPWTFGQGTKVEIK
- binding result [1]: binds
- binding result [2]: binds

B3: 5.6.c3108 (antibody, V domains shown)
VH: QVQLVESGGGVVQPGRSLRLSCAASGFTFSNSDMHWVRQAPGKGLEWVALIYFDGSSQYYVDSVKGRFTISRDNSKNTLYLQMNSLRVEDTAVYYCAREAAIVGAIFYDGMDVWGQGTTVTVSS
VL: EIVMTQSPATLSVSPGEGATLSCRASQNVGFNVAWYQQRPGQAPRLLIYGASTRATGVPARFSGSGSGTEFTLTISSLQSEDFAVYYCQQCNNWPPLTFGGGTKVEIK
- binding result [1]: binds
- binding result [2]: binds

B4: 5.6.c3083 (antibody, V domains shown)
VH: QVQLVQSGVEVKKPGASVKLSCKASGYTFTTYGISWVRQAPGQGLEWMGWISAYDDNANYGQQFQGRVTMTTDTSTSTAYMELRSLRSDDTAVYFCARCGGEFIWGWLDPWGQGTLVTVSS
VL: QSALTQPASVSGSPGQSITISCTGTSSDIGGYNYVSWYQQHPGLAPKLMIYDVSYRPSGVSNRFSGSKSGNTASLTISGLQAEDEADYYCSSYTSSGTLVFGGGTKLTVL
- binding result [1]: binds
- binding result [2]: binds

B5: 5.6.c3113 (antibody, V domains shown)
VH: EVQMVESGGGLAQPGGSLRLSCAASGFTFSSYEMSWVRQAPGKGLEWVSYISTSGNTIYYADSVKGRFTISRDNAKNSLYLQMNNLRAEDTAFYYCAANHGDNLFWYFDLWGRGTLVTVSS
VL: DIQLIQSPSFLSASVGDRVTITCRASQGISSYLAWYQQKLGKAPKLLMYAASTLQSGVPSRFSGSGSGTEFTLTISSLQPEDFATYYCQQLNGYPPTFGQGTKLEIK
- binding result [1]: binds
- binding result [2]: binds

B6: 5.6.c3133 (antibody, V domains shown)
VH: QVQLVQSGAEVKKPGSSVKVSCKTSGGTLSTYPFSWVRQAPGQGLEWMGGIIPFFGTTNYAQKFQGRLTMTADKSTNTVYMELGSLRSEDTAVYYCAREHGDDIYYYFAMDVWGQGTTVTVSS
VL: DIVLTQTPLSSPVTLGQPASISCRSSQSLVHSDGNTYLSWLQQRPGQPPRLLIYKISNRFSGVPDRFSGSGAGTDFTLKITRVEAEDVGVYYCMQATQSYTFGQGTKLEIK
- binding result [1]: binds
- binding result [2]: binds

B7: 5.6.c3054 (antibody, V domains shown)
VH: QVTLRESGPALVKPTQTLTLTCTFSGFSLSTSGMCVSWIRQPPGKALEWLALIDWNDGKYYTTSLKTRLTISKDTSKNQVVLTMTNMDPVDTATYYCARIFTSSDWFYDAFDLWGQGAMVTVSS
VL: QIVMTQSPATLSVSPGERATLSCRASQSVNNNLAWYQQKPGQAPRLLISGASTRATGIPARFSGSGFGTEFTLTISSLQSEDFAVYYCQQYNTWPPLTFGPGTRVDIK
- binding result [1]: binds
- binding result [2]: binds

B8: 5.6.c3057 (antibody, V domains shown)
VH: QVQLVESGGGVVQSGRSLRLSCAASGFTLSSYGMHWVRQAPGKGLEWVATVSFDGNNEYYADSVKGRFTISRDKSKNTLYLQMNSLRPEDTAMYYCAKEPLPARGDFWSGHYSPPSYYYYGMDVWGQGTTVTVSS
VL: QTVVTQEPSFSVSPGGTVTLTCGLRSGSVSTNYYPSWYQQTPGQPPRTLIYNTNTRSFGVPDRFSGSILGNRAALTITGAQADDESDYYCLLYMDSGIWVFGGGTKLTVL
- binding result [1]: binds
- binding result [2]: binds
